Reference: the supplement of paper PMC9170038

Tested on: K4 kissing-loop RNA reporter
Assay: apparent KD of K4 kissing-loop reporter; higher = weaker reporter binding
Details: Eterna round: R107
Experimental: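 RNA-MaP round R107: designed RNA switches with theophylline, tryptophan, arginine or FMN aptamers are transcribed on-chip within common flanks. They are titrated with a labelled K4 kissing-loop RNA reporter in RNA-MaP buffer (100 mM Tris pH 7.5, 80 mM KCl, 4 mM MgCl2), without ligand or with the indicated ligand. Median apparent KD per design.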

[1] = input ligand: theophylline 20 uM
[2] = input ligand: tryptophan 2.4 mM
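Also: bound reporter read as fluorescence of individual clusters on recovered sequencing chips by microscopy, with normalized cluster intensities fitted with a binding model.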

Row | Sequence | apparent KD of K4 kissing-loop reporter (input ligand: FMN 200 uM) [µM] | apparent KD of K4 kissing-loop reporter (input ligand: arginine 13.2 mM) [µM] | apparent KD of K4 kissing-loop reporter (input ligand: none) [µM] | apparent KD of K4 kissing-loop reporter [1] [µM] | apparent KD of K4 kissing-loop reporter [2] [µM]
1 | AUCGUUGUCUGAGGAUAUCGUUUUACUGUAGUGAUGUUACAGAAAAUUCACAUUAUAAUUUCUAUUCGAGAAGGCAGACUACGUA [JR_ExcFMNB_Sub015] | 0.134 | 0.112 | 0.12 | 0.114 | 0.12
2 | ACAGUACCGGGAAGGAGCGUGAAUGAGAAUGGAUAUAGUGAUGUUAUGUAUACGAACGAAUCGCAGGUAGGUCGCCCGGAUCCCU [SSArgB.aD] | 0.563 | 0.507 | 0.65 | 0.722 | 0.529
3 | AAAGCAUUGAGAAGGAGCGUGUCGUGGAGUGAUGUUCCAUUGUAGACCUAAGGUCUACAAGCACAGGUAGGUCGCUCAUUGCUAA [JR_Nu_SSArginiB_Sub023] | 0.169 | 0.148 | 0.173 | 0.138 | 0.156
4 | AAGUGUGUGGCGGCCGCCACUAGAAUCCAGUGAUGUUGGAGUUAUCAUAUAAAUGAUAAUCAACAUAGGACCGGGCCAUAUAGAA [Same State - Tryptophan B (Freestyle 7)] | 0.639 | 0.523 | 0.55 | 0.745 | 0.783
5 | AAGAAUGCAGGAAGGAGCGGCGGACGGAGUGAUGUUCCGGCUAGUGAUGUUAGCAAACACCGCCAGGUAGGUCGCCUGCUGCCCU [Same State Arginine B GF 6] | 0.207 | 0.127 | 0.171 | 0.153 | 0.151
6 | GCAGUGAUGUUGCUGAUGUACAGUGGGAUACGAGGACCGGUACGGCCGCCACUCGUACAGAACUUAUUAAUACAUCGAUAAGUGA [XIV] | 0.534 | 0.612 | 0.71 | 0.643 | 0.687
7 | UGAACCCGGUCGGCCGCCACUCUGAGAACCAUCGCCCUACGUGCAGUGAUGUUGUACCUAAUGAGGAGGACCGGGACUGGGCGGC [theeternabot_sameState_KL_Trp_B_36] | 0.316 | 0.277 | 0.36 | 0.204 | 0.223
8 | UGUCAUUGGUCGGCCGCCACUUCGUAUGAAGUGAUGUUUUGUAGAUUGUGUUGAAAGGUAUGGUGAAGGACCGGGACCGAUGACU [FiskerMod 22 - Jieux - Same State - Tryptophan B] | 0.516 | 0.266 | 0.765 | 0.203 | 0.508
9 | GUCCCAGUGAUGUUGGUAGGCGGGCGGGAUACCAGCGAAGACUCACGCCCUUGGCAGCCCACAUAUCCCGCGUAGGGAUUAGCCC [Same State - Theophylline A (Freestyle 22)] | 0.652 | 0.437 | 0.656 | 0.638 | 0.457
10 | UGAUAGGACAGAAGGAGCGGGAGUGAUGUUCCCAAAAGUAUAAGGUGUCAAAAGACACCCUCCCAGGUAGGUCGCUGUCCUAUCU | 0.153 | 0.33 | 0.353 | 0.302 | 0.367
11 | UGACUACAAAAGGAAUAAUCCUAGUGAUGUUAGGAUAUGCUGAUAAGCAGAAGGAACGGAGAUCGAAAGAUCUCAAAUGUAGUCU [whbob_Ex_FMNA__2th191] | 0.153 | 0.0898 | 0.0829 | 0.112 | 0.086
12 | CCAUCGCUAUUCGAUACCAGCCAAGAGGUCUUUGGCCUCUUAAUGGAGUGAUGUUCCAUUGGCCCUUGGCAGCGAAUAGUGAUGG [Theophylline B K4 18] | 0.771 | 0.489 | 0.723 | 0.823 | 0.798
13 | ACAUUAGCGAGUGAUGUUCGCUAAGACGAAGGAGCGCUCGCGAGAGCAGGUAGGUCGCGUCUAGUGUCACUGUACUAAAUAGUGA [Arg A SS t12] | 0.159 | 0.164 | 0.18 | 0.183 | 0.169
14 | UGAUAGGACAGAAGGAGCGGAAGUGAUGUUUCCAAAAGGGUAAGGUGUCAAAAGACACCCUUCCAGGUAGGUCGCUGUCCUAUCU | 0.0939 | 0.109 | 0.099 | 0.111 | 0.0863
15 | AAACAUCACUGGGAGUGAUGUUCUCAGUGACGAGGACCGGUACGGCCGCCACUCGCGAGAGAUAUAGAUGAGUAAUGACAUCAUU [Excl Tryptophan A V3] | 0.277 | 0.232 | 0.286 | 0.274 | 0.304
16 | UAAAUUAUCUGAAGGAGCGUGAAAUAAUAUUAAACAUAACAACCCAGUGAUGUUGGGUUAUCACAGGUAGGUCGCAGAUGUAGAU [Same State Arginie B GF 24] | 0.0956 | 0.113 | 0.098 | 0.118 | 0.0855

Row | Sequence | apparent KD of K4 kissing-loop reporter (input ligand: FMN 200 uM) [µM] | apparent KD of K4 kissing-loop reporter (input ligand: arginine 13.2 mM) [µM] | apparent KD of K4 kissing-loop reporter (input ligand: none) [µM] | apparent KD of K4 kissing-loop reporter [1] [µM] | apparent KD of K4 kissing-loop reporter [2] [µM]
17 | AUUCGUUUAUGUGAUACCAGACUUUGCAGUGAUGUUGCAUUAAUUAUUGAUGAUUAGUUUGUCCCUUGGCAGCACUAUUUAUUUA [JR_SSTheophyB_Sub003] | 0.0546 | 0.105 | 0.0638 | 0.104 | 0.0477
18 | UUACAGCCCAGUGAUGUUGGGUAGCGGCGGCGAGGACCGGUACGGCCGCCACUCGGCGCACAGGCGGAGUGAUGUUUUGCUUAAA [Same State Tryptophan A GF 11] | 0.718 | 0.59 | 0.894 | 0.927 | 0.476
19 | UUGCCCGAUGGAGAUACCAGCAGUUGUGCAGUGAUGUUGCACAAGUACUCGCUCCAUUGCUGCCCUUGGCAGCUCCCGGCGAAAA [Reoraren] | 0.0959 | 0.0797 | 0.0847 | 0.0924 | 0.0813
20 | AAAACUAUCAGAAGGAGCGUGGAAUAUUCAUCUGUAUCUAAUACGAGUGAUGUUCGUAAUUCACAGGUAGGUCGCUGAUCAAUAA [whbob_Ex_Arginine_B_2th155] | 0.255 | 0.226 | 0.241 | 0.25 | 0.241
21 | GCAAACCUCAGUGAUGUUGAGUAAUCGGAAGGAGCGCGUGAAAACGCAGGUAGGUCGCCGAUACAUGAAGUAUCUUCGUGUUUGC [Arginine A K4 23] | 0.284 | 0.365 | 0.354 | 0.38 | 0.274
22 | AAAUAGAUCAGUCACCCAGUGAUGUUGGAAGGAGCGUGCGAAAGCACAGGUAGGUCGCCGAAAUAAAAUUGGCUGAUCAAAAUAA | 0.151 | 0.221 | 0.116 | 0.308 | 0.104
23 | AGCUAGUGAAACUAGUUUAAACUAGGUGAAGGAGCGAUCGAAAGAUCAGGUAGGUCGCACCUAACUGAGUGAUGUUCAGGAAAUA [KL-SSArg-A4] | 0.0671 | 0.0543 | 0.0707 | 0.0667 | 0.0613
24 | GGAUAGGAUAGAGGAUAUGGCUUACGCAGAAAUAACUUAUUGUGUAAAUCCAUAGGGAGUGAUGUUCCAGAAGGCUGUCCUAUCG [MatMod 17 - Jieux - Exclusion - FMN B] | 0.415 | 0.212 | 0.251 | 0.244 | 0.201
25 | GCUAUGGUAGGAAGGAGCGCUUAUUUAUUUUUACGAGUGAUGUUCGGUAGUAGAUAGUUAAAGCAGGUAGGUCGCCUACUAUAGC [Arginine B K4 16] | 0.141 | 0.112 | 0.148 | 0.135 | 0.123
26 | CUGCAAAAGUCGGCCGCCACUCCGGGCCCUAUAAAUGGGCGCAGUGAUGUUGCGGCUAGGCCUCUGAGGACCGGGACUUUGUAAC [Aratan] | 0.19 | 0.0647 | 0.087 | 0.131 | 0.218
27 | UGUACCGAGUCAGGAUAUAGCGUCGAAAGACGAAAUGGAGUGAUGUUCCUUAAACUGCGAAAGCAGCUAGAAGGGACUUGGUACU [FmnBS 28 #SwitchBubble #StaticStem #DoubleMagnetSystem] | 0.153 | 0.234 | 0.246 | 0.25 | 0.239
28 | AUUUUGGUUUAGAGUGAUGUUCCUUGUGUUCGAGGACCGGUACGGCCGCCACUCGGGUAGAAAAGAAAAGAAAUGUUUGAUUUUU [BDazzled - #10 SS Tryptophan A] | 0.251 | 0.105 | 0.548 | 0.0928 | 0.123
29 | AUUUAUGUUUCGGCCGCCACUCCACGUACUCAGAGAGAGUGAUGUUCUUUUUAUUAACGUCUAUGGAGGACCGGGAAGAGGUGAG [theeternabot_exclusion_KL_Trp_B_37] | 0.672 | 0.64 | 0.93 | 0.931 | 0.536
30 | AACCACUCGUUACAUCACUAUCGAGUGGAACGAGGACCGGUACGGCCGCCACUCGAUAAGAUGCAGUGAUGUUGCAUCUAAGAAU [KL-SSTryp-A (BrourdMod)5 #dotplot2 strengthened] | 0.208 | 0.168 | 0.183 | 0.192 | 0.141
31 | CGUUUAUAGCAGGAUACCAGUACGGAUAAAGUACGUUAAUAGUAGAGUGAUGUUCUAAAGUACCCUUGGCAGCUUAGAGUGAGUG [ExTheophylB.O] | 0.107 | 0.149 | 0.112 | 0.144 | 0.0781
32 | UUCCUAUUAUUAACACUAUAUACAACUGAAGGAGCGACAAUAAAGUCAGGUAGGUCGCAGAAUUAAUGAGUGAUGUUCAUUUUUA [JR_ExcArginiA_Sub013] | 0.0819 | 0.141 | 0.0966 | 0.124 | 0.0609
